Among the data in patent US20220259593A1, “CONTROL OF MAMMALIAN GENE DOSAGE USING CRISPR” (The Regents of the University of California, priority 2019, published 2022) are Mean relative activity values, retold here.

This data set deals with K562 CRISPRi cells. The experiment in a line: Constant region variant library pooled growth screen, K562. It is filed as cell-based, human. The conditions noted are these: sgRNA constant region variants. In a few lines:
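Library of sgRNA constant-region variants, each paired with 36 targeting sequences (essential-gene and non-targeting), transduced in duplicate into K562 CRISPRi cells, puromycin-selected and grown 4–8 days at >2000× coverage. Activity per variant is its growth phenotype normalised to the same targeting sequence with unmodified constant region.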

Where [1] appears, read: relative to the original, un-modified constant region cr995 (= 1).
[2] abbreviates: activity relative to the original, un-modified constant region cr995.

B1: cr377 (nucleic acid)
guide: GTTTAAGAGCTAAGCTGGAAACAGCATAGCAAGTTTAAATAAGGCTAGTCCGTTAGCAACTTGAAAAAGTGGCACCGAGTCGGTGCT
modifications: listed as DNA, chemistry not fully specified
As for B1, the Mean relative activity under setting [1] was 1.012.

B2: cr690 (nucleic acid)
guide: GTTTAAGAGCTAAGCTGGAAACAGCAGAGCAAGTTTAAATAAGGCTAGTCCGTTATCAACTTGAAAAAGTGGCACCGAGTCGGTGCT
modifications: listed as DNA, chemistry not fully specified
As to B2, under setting [1], the Mean relative activity was 1.011.

B3: cr037 (nucleic acid)
guide: GTTTAATCGCTAAGCTGGAAACAGCATAGCAAGTTTAAATAAGGCTAGTCCGTTATCAACTTGAAAAAGTGGCACCGAGTCGGTGCT
modifications: listed as DNA, chemistry not fully specified
The molecule B3 yielded a Mean relative activity under setting [1] of 1.01.

B4: cr139 (nucleic acid)
guide: GTTTAAGAGCTAAGCTGGAAACAGCATAGCAAGTTTAAATAAGGCTAGTCCGTTATCAACTTGAAAAAGTGGCAACGAGTCGTTGCT
modifications: listed as DNA, chemistry not fully specified
The molecule B4 gave a Mean relative activity under setting [1] of 1.006.

B5: cr559 (nucleic acid)
guide: GTTTAAGAGCTAAGCTGGAAACAGCATAGCAAGTTTAAATAAGGCTAGTCCGTTATCAACTTGAAAAAGTGGTACCGAGTCGGTACT
modifications: listed as DNA, chemistry not fully specified
Under setting [1], B5 registered a Mean relative activity of 1.007.

B6: cr348 (nucleic acid)
guide: GTTTAAGAGCTAAGCTGGAAGCAGCATAGCAAGTTTAAATAAGGCTAGTCCGTTATCAACTTGAAAAAGTGGCACCGAGTCGGTGCT
modifications: listed as DNA, chemistry not fully specified
B6 registered a Mean relative activity under setting [1] of 1.008.

B7: cr656 (nucleic acid)
guide: GTTTAAGAGCTAAGCTGGAAACAGCATAGCAAGTTTAAATAAGGCTAGTCCGTTATCAACTTGAAAAAGTGGCCCCGAGTCGGGGCT
modifications: listed as DNA, chemistry not fully specified
Under setting [1], B7 yielded a Mean relative activity of 1.004.

B8: cr771 (nucleic acid)
guide: GTTTAAGAGCTAAGCTGGAAACAGCATAGCAAGTTTAAATAAGGCTAGTCCGTTATCAACTTGAGAAAGTGCCACCGAGTCGGTGGT
modifications: listed as DNA, chemistry not fully specified
Molecule B8 gave a Mean relative activity under setting [1] of 1.007.

B9: cr423 (nucleic acid)
guide: GTTTAAGAGCTAAGCTGGAAACAGCATAGCAAGTTTAAATAAGGCTAGTCCGTTATCAGCTTGAAAAAGCGGTACCGAGTCGGTACT
modifications: listed as DNA, chemistry not fully specified
Consider B9, for which the Mean relative activity under setting [1] worked out at 1.012.

B10: cr232 (nucleic acid)
guide: GTTTAAGAGCTAAGCTGGAAACAGCACAGCAAGTTTAAATAAGGCTAGTCCGTTATCAACTTGAAAAAGTGGCACCGAGTCGGTGCT
modifications: listed as DNA, chemistry not fully specified
For the molecule B10, the Mean relative activity under setting [1] is 1.006.

B11: cr510 (nucleic acid)
guide: GTTTAAGAGCTAAGCTGGAAACAGCATAGCAAGTTTAAATAAGGCTAGTCCGTTATCATGTTGAAAAACAGGCACCGAGTCGGTGCT
modifications: listed as DNA, chemistry not fully specified
B11 yielded a Mean relative activity under setting [1] of 1.007.

B12: cr632 (nucleic acid)
guide: GTTTAAGAGCTAAGCTGGAAACAGCATAGCAAGTTTAAATAAGGCTAGTCCGTTATCAACTTGCAGAAGTGGCACCGAGTCGGTGCT
modifications: listed as DNA, chemistry not fully specified
Under setting [1], B12 registered a Mean relative activity of 1.008.

B13: cr968 (nucleic acid)
guide: GTTTAAGAGCTAAGCTGGAAACAGCATAGCAAGTTTAAATAAGGCTAGTCCGTTATCAACTTGAAAAAGTGGAACCGAGTCGGTTCT
modifications: listed as DNA, chemistry not fully specified
As for B13, the Mean relative activity under setting [1] was 1.004.

B14: cr333 (nucleic acid)
guide: GTTTAAGAGCTAAGCTGGAAACAGCATAGCAAGTTTAAATAAGGCTAGTCCGTTATCAAGGTGAAAACCTGGCACCGAGTCGGTGCT
modifications: listed as DNA, chemistry not fully specified
B14: under setting [2], the Mean relative activity stood at 1.072.

B15: cr715 (nucleic acid)
guide: GTTTAAGAGCTAAGCTGGAAACAGCATAGCGAGTTTAAATAAGGCTAGTCCGTTATCAACTTGAAAAAGTGGCACCGAGTCGGTGCT
modifications: listed as DNA, chemistry not fully specified
Regarding B15, under setting [1], the Mean relative activity came to 1.008.

B16: cr606 (nucleic acid)
guide: GTTTAAGAGCTAAGCTGGAAACAGCATAGCAAGTTTAAATAAGGCTAGTCCGTTATCAAGTTGAAAAACTGGCCTCGAGTCGAGGCT
modifications: listed as DNA, chemistry not fully specified
For the molecule B16, the Mean relative activity under setting [1] was 1.007.

B17: cr365 (nucleic acid)
guide: GTTTAAGAGCTAAGCTGGAAACAGCATAGCAAGTTTAAATAAGGCTAGTCCGTAATCAACTTGAAAAAGTGGCACCGAGTCGGTGCT
modifications: listed as DNA, chemistry not fully specified
B17 returned a Mean relative activity under setting [1] of 1.007.

B18: cr393 (nucleic acid)
guide: GTTTAAGAGCTAAGCTGGAAACAGCATAGCAAGTTTAAATAAGGCTAGTCCGTTATCAACTTGACAAAGTGGCACCGAATCGGTGCT
modifications: listed as DNA, chemistry not fully specified
For the molecule B18, the Mean relative activity under setting [1] is reported as 1.004.

B19: cr672 (nucleic acid)
guide: GTTTAAGAGCTAAGCTGGAAACAGCATAGCAAGTTTAAATAAGGCTAGTCCGTTATCAACTTGAAAAAGTGGCATCGAGTCGGTGCT
modifications: listed as DNA, chemistry not fully specified
Molecule B19 returned a Mean relative activity under setting [1] of 1.005.

B20: cr936 (nucleic acid)
guide: GTTTAAGAGCTAAGCTGGAAACAGCATAGCAAGTTTAAATAAGGCTAGTCCGTTATCAACTTGAAAAAGTGTCACCGAGTCGGTGAT
modifications: listed as DNA, chemistry not fully specified
Molecule B20 displayed a Mean relative activity under setting [2] of 1.072.

B21: cr642 (nucleic acid)
guide: GTTTAAGAGCTAAGCTGGAAACAGCATAGCATGTTTAAATAAGGCTAGTCCGTTATCAACTTGAAAAAGTGGCACCGAGTCGGTGCT
modifications: listed as DNA, chemistry not fully specified
B21 had a Mean relative activity under setting [1] of 1.008.

B22: cr144 (nucleic acid)
guide: GTTTAAGAGCTAAGCTGGAAACAGCATAGCAAGTTTAAATAAGGCTAGTCCGTTATCATGTAGAAATACAGGCACCGAGTCGGTGCT
modifications: listed as DNA, chemistry not fully specified
Under setting [1], B22 registered a Mean relative activity of 1.007.
